The data set concerns the molecule itself. Nature of the data set: SEC. Background: Size exclusion chromatography separates by hydrodynamic size, large species first.

As usually defined, the stoichiometry N is the number of molecules, sites or subunits per partner or assembly.

B1: mouse TBK1 residues 1-657, K38A (GST tag cleaved) (domain or fragment, UniProt Q9WUN2 1-657, looked up)
chain: MQSTSNHLWLLSDILGQGATANVFRGRHKKTGDLYAVAVFNNISFLRPVDVQMREFEVLKKLNHKNIVKLFAIEEETTTRHKVLIMEFCPCGSLYTVLEEPSNAYGLPESEFLIVLRDVVGGMNHLRENGIVHRDIKPGNIMRVIGEDGQSVYKLTDFGAARELEDDEQFVSLYGTEEYLHPDMYERAVLRKDHQKKYGATVDLWSVGVTFYHAATGSLPFRPFEGPRRNKEVMYKIITGKPSGAISGVQKAENGPIDWSGDMPLSCSLSQGLQALLTPVLANILEADQEKCWGFDQFFAETSDVLHRMVIHVFSLQHMTAHKIYIHSYNTAAVFHELVYKQTKIVSSNQELIYEGRRLVLELGRLAQHFPKTTEENPIFVTSREQLNTVGLRYEKISLPKIHPRYDLDGDASMAKAVTGVVCYACRTASTLLLYQELMRKGVRWLVELVKDDYNETVHKKTEVVITLDFCIRNIEKTVKVYEKLMKVNLEAAELGEISDIHTKLLRLSSSQGTIESSLQDISSRLSPGGLLADTWAHQEGTHPRDRNVEKLQVLLNCITEIYYQFKKDKAERRLAYNEEQIHKFDKQKLYYHATKAMSHFSEECVRKYEAFKDKSEEWMRKMLHLRKQLLSLTNQCFDIEEEVSKYQDYTNELQET
Take B1: the “stoichiometry N” value was 2.

B2: mouse TBK1 residues 1-657, S172A (GST tag cleaved) (domain or fragment, UniProt Q9WUN2 1-657, looked up)
chain: MQSTSNHLWLLSDILGQGATANVFRGRHKKTGDLYAVKVFNNISFLRPVDVQMREFEVLKKLNHKNIVKLFAIEEETTTRHKVLIMEFCPCGSLYTVLEEPSNAYGLPESEFLIVLRDVVGGMNHLRENGIVHRDIKPGNIMRVIGEDGQSVYKLTDFGAARELEDDEQFVALYGTEEYLHPDMYERAVLRKDHQKKYGATVDLWSVGVTFYHAATGSLPFRPFEGPRRNKEVMYKIITGKPSGAISGVQKAENGPIDWSGDMPLSCSLSQGLQALLTPVLANILEADQEKCWGFDQFFAETSDVLHRMVIHVFSLQHMTAHKIYIHSYNTAAVFHELVYKQTKIVSSNQELIYEGRRLVLELGRLAQHFPKTTEENPIFVTSREQLNTVGLRYEKISLPKIHPRYDLDGDASMAKAVTGVVCYACRTASTLLLYQELMRKGVRWLVELVKDDYNETVHKKTEVVITLDFCIRNIEKTVKVYEKLMKVNLEAAELGEISDIHTKLLRLSSSQGTIESSLQDISSRLSPGGLLADTWAHQEGTHPRDRNVEKLQVLLNCITEIYYQFKKDKAERRLAYNEEQIHKFDKQKLYYHATKAMSHFSEECVRKYEAFKDKSEEWMRKMLHLRKQLLSLTNQCFDIEEEVSKYQDYTNELQET
As to B2, the “stoichiometry N” value stood at 2.

Values taken from PMC3702631 (Structure (London, England : 1993), 2013).
